The experiment has as its target T1, MATβV1Δ16, MATβV1 lacking the first 16 amino acids (human, UniProt Q9NZL9 17-334).
T1 construct: MATβV1 (splicing variant 1 of mat2B), human, lacking the first 16 amino acids; Cloned via NcoI and XhoI sites like MATβV1; source: cloned in the HIS-parallel vector
Briefly: SEC; MATα and MATβ incubated 1 h at 4°C in 50 mM HEPES pH 7.5, 10 mM MgCl2, 50 mM KCl, 300-500 µM NADP; Superdex 200 10/300 in 200 mM NaCl, 25 mM HEPES pH 7.5, 1 mM MgCl2, 5 mM KCl, 1 mM TCEP; also tested for the effect of NADP. Conditions: both partners purified.

B1: MATα1, catalytic subunit of methionine adenosyltransferase (mat1A gene) (enzyme)
chain: not shown
notes: MATα1, catalytic subunit encoded by mat1A, human; construct provided by SGC Oxford; His tag cleaved with TEV protease; also called MAT(α1)4; source: E. coli BL21(DE3), purified (nickel resin, HiTrap Q ion exchange, Superdex 200 gel filtration)
For the molecule B1, the binding result was “binds”.

The record behind these values is publication PMC4107924 (IUCrJ, 2014).
